This is an account of results in article PMC4541365, “Alpha-ring Independent Assembly of the 20S Proteasome” (Scientific Reports, 2015).

The series deals with the molecule itself. As to the kind of experiment: native gel or EMSA; ICAR-purified α-his subunits alone (10 or 20 μg) on nondenaturing 4–15% or 5–10% gradient gels, 55 V, 4 °C; self-assembly into single and double α-rings. (In general: A gel shift assay detects complexes by their altered migration in electrophoresis.)

B1: Methanococcus maripaludis S2 20S proteasome α subunit, C-terminally hexahistidine-tagged, wild type (natural protein, UniProt Q6M0L9 1-259, looked up)
chain: MQQMVPASGYDRAITIFSPEGRLYQVEYAREAVRRGTTAVGIKCKDGVVLAVDRRITSKLIDVSSIEKIFQIDDHIVAATSGLVADARVLIDRARIEAQMNRVSYGEAITVEALAKKICDIKQAYTQHGGARPFGLALLITGIDRHSARLFETDPSGALIEYKATAIGSGRPIAMEVLESKYDENMTVSEGMELALYALSKTTEELKPENIDMAIIKDSGKLVEKISVDEIEKIVKAVYEKVKAEEEEAEKNKGEEDSE
notes: Proteasome subunit alpha of Methanococcus maripaludis S2, cloned by PCR from genomic DNA; expected Mr of α-his 29.5 kDa; Exists as single rings (SR), double rings (DR) and non-ring species; also called α-his; WT α; source: also Sephacryl S-300 fractions; also in lysate (lysate mixing) or coexpressed with β subunits; not shown: His6, C-terminal, kept
On to B1, for which the binding result was “binds”.
